The values below come from patent EP4420676A1 (Medizinische Hochschule Hannover, dated 2024).

Assay [1] has as its target T1, murine DGCR2 expressed on HEK293T cells (mouse, UniProt P98154 25-548).
T1 construct: Transiently expressed on HEK293T cells from a vector with eGFP downstream of a P2A site; also called mouse DGCR2; murine antigen
T1 sequence: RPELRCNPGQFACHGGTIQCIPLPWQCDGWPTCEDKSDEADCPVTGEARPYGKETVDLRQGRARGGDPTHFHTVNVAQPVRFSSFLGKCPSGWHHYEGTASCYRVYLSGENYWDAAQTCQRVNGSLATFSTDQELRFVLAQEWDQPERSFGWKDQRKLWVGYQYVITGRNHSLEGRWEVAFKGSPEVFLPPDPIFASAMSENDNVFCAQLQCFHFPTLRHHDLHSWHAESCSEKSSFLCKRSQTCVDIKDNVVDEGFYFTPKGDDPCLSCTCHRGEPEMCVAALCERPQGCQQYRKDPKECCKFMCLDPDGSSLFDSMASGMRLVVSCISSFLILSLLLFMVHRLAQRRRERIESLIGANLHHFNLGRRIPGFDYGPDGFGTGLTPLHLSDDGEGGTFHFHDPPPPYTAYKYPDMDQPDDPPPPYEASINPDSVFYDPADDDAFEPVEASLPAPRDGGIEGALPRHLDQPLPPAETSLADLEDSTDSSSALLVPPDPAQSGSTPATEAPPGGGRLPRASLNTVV
Put plainly: flow cytometry, soluble scFv on transfected HEK293T cells, anti-His PE. Background: Flow cytometry measures light scatter and fluorescence of single cells or particles in a stream.

The target of assay [2] is T2, human DGCR2 expressed on HEK293T cells (human, UniProt P98153 21-550).
T2 construct: Transiently expressed on HEK293T cells from a vector with eGFP downstream of a P2A site; also called human antigen; DiGeorge Syndrom Critical Region 2
T2 sequence: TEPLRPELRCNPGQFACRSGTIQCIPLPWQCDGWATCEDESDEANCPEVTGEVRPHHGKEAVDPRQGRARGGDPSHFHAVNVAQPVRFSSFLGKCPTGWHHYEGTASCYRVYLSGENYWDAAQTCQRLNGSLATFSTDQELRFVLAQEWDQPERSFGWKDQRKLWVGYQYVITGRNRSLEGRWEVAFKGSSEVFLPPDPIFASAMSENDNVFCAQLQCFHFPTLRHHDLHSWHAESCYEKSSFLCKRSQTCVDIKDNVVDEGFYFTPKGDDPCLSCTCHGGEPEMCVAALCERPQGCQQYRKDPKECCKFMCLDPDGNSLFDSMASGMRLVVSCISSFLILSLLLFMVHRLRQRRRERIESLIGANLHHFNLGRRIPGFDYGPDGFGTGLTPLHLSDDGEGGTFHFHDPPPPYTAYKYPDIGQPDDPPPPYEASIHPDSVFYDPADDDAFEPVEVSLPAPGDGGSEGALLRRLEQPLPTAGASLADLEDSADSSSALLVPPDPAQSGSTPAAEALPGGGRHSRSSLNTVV
Put plainly: flow cytometry, soluble scFv on transfected HEK293T cells (figure legend).

For assay [3], the target named is T1, murine DGCR2 expressed on HEK293T cells. Described as above.

B1: tpi010-A5 scFv (scFv)
scFv: EVQLVESGGGLVQPGGSLRLSCAASGFTVSSNYMSWVRQAPGKGLEWVSVIYSGGSTYYADSVKGRFTISRDNAKNSLYLQMNSLRAEDTAVYYCARGWTTFDYWGQGTLVTVSSGSASAPKLEEGEFSEARVQAVLTQPPSLSVSPRQTVTITCSGDQLGDRYVSWYQQKPGQSPMLVIYQDDRRPSGVPERFSGSNSGNTATLTIGGTQAMDQADYYCQTWDNSPVVFGGGTKLTVLGQPKAAPSVTLFPPSSAAAGSEQKLISEEDLSHHHHHH
notes: Soluble scFv produced in E. coli
As for B1, the binding result in assay [1] and in assay [2] was “binds” each time.

B2: UK018-G3 scFv (scFv)
scFv: QVQLVQSGGGVVQPGRSLRLSCAASGFTFSSYGMHWVRQAPGKGLEWVAVISYDGSNKYYADSVKGRFTISRDNSKNTLYLQMNSLRAEDTAVYYCAKDRGAVAGTDWYFDLWGRGTLVTVSSGSASAPKLEEGEFSEARVSSELTQDPAVSVALGQTVRITCQGDSLRSYYASWYQQKPGQAPVLVIYGKNNRPSGIPDRFSGSSSGNTASLTITGAQAEDEADYYCNSRDSSGNHVVFGGGTKLTVLGQPKAAPSVTLFPPSSAAAGSEQKLISEEDLSHHHHHH
notes: as for B1
B2: the binding result in assay [2] and in assay [3] was “binds” each time.

B3: UK018-G9 scFv (scFv)
scFv: QVQLVQSGGGLVQPGGSLRLSCAASGFTFSSYSMSWVRQAPGKGLEWVLGITRGGNTFYADSVTGRFTISRDISKNTVFLQMDSLRVEDTAIYYCAKDWTMSGINVFDTWGQGTLVTVSSGSASAPKLEEGEFSEARVQAVLTQPPSVSGSPGQSVTISCTGTSSDVGAYNRVSWYQQPPGTAPKLMIYEVNNRPSGVPDRFSGSKSGNTASLTISGLQAEDEADYYCSSSTTSSTYVFGTGTKVTVLGQPKANPTVTLFPPSSAAAGSEQKLISEEDLSHHHHHH
notes: as for B1
Regarding B3, the binding result in assay [2] and in assay [3] was “binds” in each case.
